# Publication PMC9482650, “Quantitative fragmentomics allow affinity mapping of interactomes” (Nature Communications, 2022)
# T1: DVL3, Q92997
# T1 sequence (Q92997 244-331, limits assumed, looked up): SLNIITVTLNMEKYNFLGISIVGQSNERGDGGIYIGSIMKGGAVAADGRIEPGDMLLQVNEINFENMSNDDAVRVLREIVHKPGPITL
# T2: SNTA1, Q13424
# T2 sequence (Q13424 82-180, limits assumed, looked up): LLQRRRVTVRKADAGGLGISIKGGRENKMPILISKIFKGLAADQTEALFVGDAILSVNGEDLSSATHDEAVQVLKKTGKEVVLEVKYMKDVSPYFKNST
# T3: DLG3_1, Q92796
# T3 sequence (Q92796 125-227, limits assumed, looked up): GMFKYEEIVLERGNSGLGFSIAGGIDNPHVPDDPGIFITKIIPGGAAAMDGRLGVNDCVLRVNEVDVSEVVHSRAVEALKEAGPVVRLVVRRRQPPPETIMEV
# T4: MPP7, Q5T2T1
# T4 sequence (Q5T2T1 134-230, limits assumed, looked up): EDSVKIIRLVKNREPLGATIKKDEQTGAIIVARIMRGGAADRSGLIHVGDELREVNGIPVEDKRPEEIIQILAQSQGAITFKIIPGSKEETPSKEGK
# T5: GRIP1_7, Q9Y3R0
# T5 sequence (Q9Y3R0 999-1096, limits assumed, looked up): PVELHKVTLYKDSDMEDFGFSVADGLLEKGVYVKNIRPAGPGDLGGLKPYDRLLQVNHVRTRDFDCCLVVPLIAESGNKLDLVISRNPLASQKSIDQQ
# T6: LRRC7, Q96NW7
# T6 sequence (Q96NW7 1440-1537, limits assumed, looked up): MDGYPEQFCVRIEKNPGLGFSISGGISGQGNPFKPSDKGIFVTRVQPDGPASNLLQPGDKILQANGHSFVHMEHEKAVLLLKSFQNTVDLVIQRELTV
# T7: GRIP1_3, Q9Y3R0
# T7 sequence (Q9Y3R0 247-346, limits assumed, looked up): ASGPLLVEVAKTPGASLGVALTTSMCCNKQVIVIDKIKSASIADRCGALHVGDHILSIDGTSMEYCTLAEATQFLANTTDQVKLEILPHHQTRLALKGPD
# T8: PCLO, Q9Y6V0
# T8 sequence (Q9Y6V0 4491-4600, limits assumed, looked up): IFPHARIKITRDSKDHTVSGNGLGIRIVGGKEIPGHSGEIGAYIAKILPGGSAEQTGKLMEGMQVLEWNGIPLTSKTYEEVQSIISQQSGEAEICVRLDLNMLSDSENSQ
# T9: TX1BP3, O14907
# T9 sequence (O14907 10-122, limits assumed, looked up): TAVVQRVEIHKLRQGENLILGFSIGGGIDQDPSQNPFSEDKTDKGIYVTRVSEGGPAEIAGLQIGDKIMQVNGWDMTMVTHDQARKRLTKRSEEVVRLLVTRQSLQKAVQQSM
# T10: NHERF3_4, Q5T2W1
# T10 sequence (Q5T2W1 373-468, limits assumed, looked up): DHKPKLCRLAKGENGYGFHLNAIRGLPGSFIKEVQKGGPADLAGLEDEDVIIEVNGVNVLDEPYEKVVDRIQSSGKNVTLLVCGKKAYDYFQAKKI
# T11: NHERF3_3, Q5T2W1
# T11 sequence (Q5T2W1 238-333, limits assumed, looked up): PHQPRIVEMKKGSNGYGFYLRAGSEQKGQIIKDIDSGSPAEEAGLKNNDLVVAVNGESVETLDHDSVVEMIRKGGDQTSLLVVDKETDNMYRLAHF
# T12: SYNJ2BP, P57105
# T12 sequence (P57105 8-110, limits assumed, looked up): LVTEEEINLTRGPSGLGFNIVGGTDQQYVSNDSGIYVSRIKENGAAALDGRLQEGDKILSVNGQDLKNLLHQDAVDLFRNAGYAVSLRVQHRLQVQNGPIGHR
# T13: RHPN1, Q8TCX5
# T13 sequence (Q8TCX5 508-602, limits assumed, looked up): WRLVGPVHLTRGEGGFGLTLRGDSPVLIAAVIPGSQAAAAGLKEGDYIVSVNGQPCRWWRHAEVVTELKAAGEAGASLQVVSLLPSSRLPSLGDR
# B1: SLC2A3, P11169 (peptide)
# chain: EPAKETTTNV
# B2: SLCO2B1, O94956 (peptide)
# chain: PGKKPEDSRV
# B3: NEB, P20929 (peptide)
# chain: MLPANYVEAI
# B4: LRRC4, Q9HBW1 (peptide)
# chain: TKDKVQETQI
# B5: CACNA1D, Q01668 (peptide)
# chain: ADEMICITTL
# B6: HDAC7, Q8WUI4 (peptide)
# chain: LVEEEEPMNL
# How the values were obtained:
# Assay in all cases: holdup assay
# Set-up in all cases: key: below the threshold = too weak to quantify, mostly under pKd 3.1 to 4
# Conditions in all cases: plain residues with an end cap or a label only (N-terminal biotin on a linker: ado-ado)
# GRIP2_7, Q9C0E4 = biological target: GRIP2_7, Q9C0E4
# DVL3, Q92997 = biological target: T1, DVL3, Q92997
# Inadl_5, Q8NI35 = biological target: Inadl_5, Q8NI35
# MAST1, Q9Y2H9 = biological target: MAST1, Q9Y2H9
# DLG2_3, Q15700 = biological target: DLG2_3, Q15700
# DLG1_3, Q12959 = biological target: DLG1_3, Q12959
# SNTA1, Q13424 = biological target: T2, SNTA1, Q13424
# DLG3_1, Q92796 = biological target: T3, DLG3_1, Q92796
# PDZRN4_1, Q6ZMN7 = biological target: PDZRN4_1, Q6ZMN7
# MPP7, Q5T2T1 = biological target: T4, MPP7, Q5T2T1
# GRIP1_7, Q9Y3R0 = biological target: T5, GRIP1_7, Q9Y3R0
# HTRA1, Q92743 = biological target: HTRA1, Q92743
# LRRC7, Q96NW7 = biological target: T6, LRRC7, Q96NW7
# GRIP1_3, Q9Y3R0 = biological target: T7, GRIP1_3, Q9Y3R0
# PCLO, Q9Y6V0 = biological target: T8, PCLO, Q9Y6V0
# TX1BP3, O14907 = biological target: T9, TX1BP3, O14907
# GRID2IP_2, A4D2P6 = biological target: GRID2IP_2, A4D2P6
# NHERF3_4, Q5T2W1 = biological target: T10, NHERF3_4, Q5T2W1
# NHERF3_3, Q5T2W1 = biological target: T11, NHERF3_3, Q5T2W1
# SYNJ2BP, P57105 = biological target: T12, SYNJ2BP, P57105
# LIMK2, P53671 = biological target: LIMK2, P53671
# MAGI2_4, Q86UL8 = biological target: MAGI2_4, Q86UL8
# RHPN1, Q8TCX5 = biological target: T13, RHPN1, Q8TCX5
# Sequence of PDZRN4_1, Q6ZMN7 (Q6ZMN7 213-318): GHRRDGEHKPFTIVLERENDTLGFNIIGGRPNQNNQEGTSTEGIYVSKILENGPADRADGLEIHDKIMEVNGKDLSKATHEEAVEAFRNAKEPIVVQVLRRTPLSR
# Sequence of HTRA1, Q92743 (Q92743 360-477): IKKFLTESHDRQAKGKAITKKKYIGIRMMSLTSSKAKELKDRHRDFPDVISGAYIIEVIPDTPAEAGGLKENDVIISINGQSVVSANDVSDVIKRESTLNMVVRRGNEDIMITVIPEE
# Sequence of MAGI2_4, Q86UL8 (Q86UL8 772-865): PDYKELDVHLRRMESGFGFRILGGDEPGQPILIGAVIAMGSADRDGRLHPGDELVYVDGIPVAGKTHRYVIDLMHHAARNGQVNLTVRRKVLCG
# Sequence of GRIP2_7, Q9C0E4 (Q9C0E4 934-1023): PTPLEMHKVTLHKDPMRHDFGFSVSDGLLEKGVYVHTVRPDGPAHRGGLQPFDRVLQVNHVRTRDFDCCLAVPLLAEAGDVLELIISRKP
# Sequence of DLG1_3, Q12959 (Q12959 457-571): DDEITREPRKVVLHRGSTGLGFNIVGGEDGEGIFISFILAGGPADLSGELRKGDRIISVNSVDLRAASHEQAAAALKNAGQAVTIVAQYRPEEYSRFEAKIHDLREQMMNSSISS
# Sequence of MAST1, Q9Y2H9 (Q9Y2H9 962-1065): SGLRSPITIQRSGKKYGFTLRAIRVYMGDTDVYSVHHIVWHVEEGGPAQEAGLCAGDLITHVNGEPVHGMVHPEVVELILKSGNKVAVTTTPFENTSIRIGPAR
# Sequence of LIMK2, P53671 (P53671 143-248): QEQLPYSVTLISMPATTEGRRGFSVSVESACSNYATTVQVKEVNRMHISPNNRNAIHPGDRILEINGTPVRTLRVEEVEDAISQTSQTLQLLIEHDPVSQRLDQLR
# Sequence of Inadl_5, Q8NI35 (Q8NI35 673-780): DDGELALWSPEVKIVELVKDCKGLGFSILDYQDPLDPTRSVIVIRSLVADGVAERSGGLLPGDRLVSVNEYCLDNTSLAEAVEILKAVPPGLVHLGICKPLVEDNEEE
# Sequence of GRID2IP_2, A4D2P6 (A4D2P6 272-370): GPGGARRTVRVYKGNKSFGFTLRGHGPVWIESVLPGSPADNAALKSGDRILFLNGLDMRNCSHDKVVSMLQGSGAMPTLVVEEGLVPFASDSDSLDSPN
Binder,"pKd (GRIP2_7, Q9C0E4)","pKd (DVL3, Q92997)","pKd (Inadl_5, Q8NI35)","pKd (MAST1, Q9Y2H9)","pKd (DLG2_3, Q15700)","pKd (DLG1_3, Q12959)","pKd (SNTA1, Q13424)","pKd (DLG3_1, Q92796)","pKd (PDZRN4_1, Q6ZMN7)","pKd (MPP7, Q5T2T1)","pKd (GRIP1_7, Q9Y3R0)","pKd (HTRA1, Q92743)","pKd (LRRC7, Q96NW7)","pKd (GRIP1_3, Q9Y3R0)","pKd (PCLO, Q9Y6V0)","pKd (TX1BP3, O14907)","pKd (GRID2IP_2, A4D2P6)","pKd (NHERF3_4, Q5T2W1)","pKd (NHERF3_3, Q5T2W1)","pKd (SYNJ2BP, P57105)",also measured
B1,below the threshold,below the threshold,below the threshold,4.46,below the threshold,3.6,4.09,3.48,below the threshold,below the threshold,below the threshold,4.04,below the threshold,below the threshold,below the threshold,4.12,3.65,below the threshold,below the threshold,below the threshold,"pKd (LIMK2, P53671): below the threshold; pKd (MAGI2_4, Q86UL8): 3.57; pKd (RHPN1, Q8TCX5): 4.35"
B2,below the threshold,below the threshold,below the threshold,below the threshold,below the threshold,below the threshold,3.97,below the threshold,below the threshold,below the threshold,below the threshold,below the threshold,below the threshold,below the threshold,below the threshold,3.54,below the threshold,below the threshold,below the threshold,4.15,"pKd (LIMK2, P53671): below the threshold; pKd (MAGI2_4, Q86UL8): below the threshold; pKd (RHPN1, Q8TCX5): 3.85"
B3,below the threshold,below the threshold,below the threshold,below the threshold,3.56,below the threshold,below the threshold,below the threshold,below the threshold,below the threshold,below the threshold,4.03,below the threshold,below the threshold,below the threshold,below the threshold,below the threshold,below the threshold,below the threshold,below the threshold,"pKd (LIMK2, P53671): below the threshold; pKd (MAGI2_4, Q86UL8): below the threshold; pKd (RHPN1, Q8TCX5): below the threshold"
B4,below the threshold,below the threshold,below the threshold,4.28,4.16,4.18,4.88,3.81,4.6,below the threshold,below the threshold,below the threshold,3.53,below the threshold,below the threshold,4.28,4.17,3.57,below the threshold,4.75,"pKd (LIMK2, P53671): below the threshold; pKd (MAGI2_4, Q86UL8): 3.72; pKd (RHPN1, Q8TCX5): 4.84"
B5,3.62,below the threshold,below the threshold,5.06,3.81,3.78,4.42,3.56,3.72,below the threshold,below the threshold,5.79,3.8,below the threshold,below the threshold,3.87,4.94,4.19,below the threshold,4.24,"pKd (LIMK2, P53671): below the threshold; pKd (MAGI2_4, Q86UL8): below the threshold; pKd (RHPN1, Q8TCX5): 5.05"
B6,below the threshold,below the threshold,below the threshold,3.61,below the threshold,below the threshold,below the threshold,below the threshold,below the threshold,below the threshold,below the threshold,4.16,below the threshold,below the threshold,below the threshold,4.01,below the threshold,below the threshold,below the threshold,below the threshold,"pKd (LIMK2, P53671): below the threshold; pKd (MAGI2_4, Q86UL8): below the threshold; pKd (RHPN1, Q8TCX5): below the threshold"
